Measured values from paper PMC2648068 (Journal of immunology (Baltimore, Md. : 1950), 2009).

Tests used:
Experiment in all cases: ELISA
recombinant human TLR2 = recombinant human TLR2 (human, UniProt O60603 21-588)
recombinant mouse TLR2 = target: T1, recombinant mouse TLR2 (mouse, UniProt Q9QUN7 25-587)
T1 sequence (looked up): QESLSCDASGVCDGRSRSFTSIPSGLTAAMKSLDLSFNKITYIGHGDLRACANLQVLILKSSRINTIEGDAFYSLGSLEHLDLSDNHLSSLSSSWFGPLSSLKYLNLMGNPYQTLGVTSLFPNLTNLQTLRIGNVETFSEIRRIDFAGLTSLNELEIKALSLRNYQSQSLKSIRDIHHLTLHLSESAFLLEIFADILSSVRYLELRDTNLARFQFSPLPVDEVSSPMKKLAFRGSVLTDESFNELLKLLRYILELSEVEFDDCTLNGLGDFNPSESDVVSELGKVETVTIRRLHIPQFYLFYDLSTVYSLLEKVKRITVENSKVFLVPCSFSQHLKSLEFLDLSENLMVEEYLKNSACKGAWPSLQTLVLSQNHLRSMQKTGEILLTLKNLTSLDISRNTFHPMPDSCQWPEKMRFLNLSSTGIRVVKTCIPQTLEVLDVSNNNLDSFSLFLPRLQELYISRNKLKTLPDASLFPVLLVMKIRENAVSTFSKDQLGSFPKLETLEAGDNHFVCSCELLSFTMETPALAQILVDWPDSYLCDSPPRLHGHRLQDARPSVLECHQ

recombinant human TLR1 = target: T2, recombinant human TLR1 (human, UniProt Q15399 25-580)
T2 sequence (looked up): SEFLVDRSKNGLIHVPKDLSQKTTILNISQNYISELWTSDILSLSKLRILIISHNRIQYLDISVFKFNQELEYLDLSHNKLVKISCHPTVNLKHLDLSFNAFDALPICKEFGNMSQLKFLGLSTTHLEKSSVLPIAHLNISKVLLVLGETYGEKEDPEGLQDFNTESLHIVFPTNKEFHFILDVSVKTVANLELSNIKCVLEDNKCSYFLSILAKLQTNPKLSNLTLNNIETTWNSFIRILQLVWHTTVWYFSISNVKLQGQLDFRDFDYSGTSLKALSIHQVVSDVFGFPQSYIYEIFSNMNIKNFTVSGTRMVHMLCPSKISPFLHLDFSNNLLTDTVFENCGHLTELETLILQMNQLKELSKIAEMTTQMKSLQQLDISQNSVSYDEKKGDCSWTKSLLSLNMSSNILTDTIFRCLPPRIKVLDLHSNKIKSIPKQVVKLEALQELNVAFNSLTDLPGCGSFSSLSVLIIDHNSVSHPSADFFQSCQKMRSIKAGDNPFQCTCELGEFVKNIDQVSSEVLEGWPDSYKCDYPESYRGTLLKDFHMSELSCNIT

recombinant mouse TLR1 = target: T3, recombinant mouse TLR1 (mouse, UniProt Q9EPQ1 26-582)
T3 sequence (looked up): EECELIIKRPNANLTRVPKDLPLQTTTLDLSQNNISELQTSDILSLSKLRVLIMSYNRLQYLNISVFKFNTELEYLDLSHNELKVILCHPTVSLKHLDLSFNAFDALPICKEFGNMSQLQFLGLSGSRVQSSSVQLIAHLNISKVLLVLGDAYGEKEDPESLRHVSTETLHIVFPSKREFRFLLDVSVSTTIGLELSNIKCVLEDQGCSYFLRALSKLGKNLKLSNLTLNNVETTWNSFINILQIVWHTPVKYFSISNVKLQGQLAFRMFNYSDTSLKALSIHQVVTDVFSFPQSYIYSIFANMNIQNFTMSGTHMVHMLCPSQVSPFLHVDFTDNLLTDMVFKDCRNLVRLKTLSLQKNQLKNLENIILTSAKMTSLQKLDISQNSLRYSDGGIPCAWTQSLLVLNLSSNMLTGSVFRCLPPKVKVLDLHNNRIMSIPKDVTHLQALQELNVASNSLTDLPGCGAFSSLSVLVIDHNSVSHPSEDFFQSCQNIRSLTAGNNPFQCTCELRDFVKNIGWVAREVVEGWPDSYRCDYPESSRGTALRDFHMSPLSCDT

Measured: binding result

Sequence of recombinant human TLR2 (O60603 21-588): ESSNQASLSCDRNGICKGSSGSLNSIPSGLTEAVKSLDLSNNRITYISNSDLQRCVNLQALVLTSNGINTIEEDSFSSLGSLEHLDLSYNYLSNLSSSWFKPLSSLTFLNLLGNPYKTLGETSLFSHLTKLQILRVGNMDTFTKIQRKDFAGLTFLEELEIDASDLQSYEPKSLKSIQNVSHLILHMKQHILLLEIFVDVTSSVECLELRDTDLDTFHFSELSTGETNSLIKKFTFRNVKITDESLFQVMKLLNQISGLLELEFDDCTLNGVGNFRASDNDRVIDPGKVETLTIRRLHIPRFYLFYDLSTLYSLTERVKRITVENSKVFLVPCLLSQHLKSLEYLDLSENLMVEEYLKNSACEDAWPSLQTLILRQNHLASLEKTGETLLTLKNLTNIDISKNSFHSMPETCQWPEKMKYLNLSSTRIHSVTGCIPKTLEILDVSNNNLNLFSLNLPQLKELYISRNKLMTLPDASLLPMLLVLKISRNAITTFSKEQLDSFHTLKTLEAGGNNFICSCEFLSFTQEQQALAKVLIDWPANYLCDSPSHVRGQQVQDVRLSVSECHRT

B1: LT-IIb-B5, pentameric B subunit of type IIb E. coli enterotoxin (wild-type) (natural protein)
chain: GASQFFKDNCNRTTASLVEGVELTKYISDINNNTDGMYVVSSTGGVWRISRAKDYPDNVMTAEMRKIAMAAVLSGMRVNMCASPASSPNVIWAIELEAE
binds: all assays above
